What was measured:
3H-gabapentin = 3H-gabapentin radioligand saturation binding; conditions: DRM fractions from transfected tsA-201 cells; n = 4
[1] = target: GFP-CaV2.2 (rabbit CaV2.2 with an N-terminal GFP) (rabbit) (UniProt Q05152)
UniProt Q05152, sequence (Q05152 whole entry): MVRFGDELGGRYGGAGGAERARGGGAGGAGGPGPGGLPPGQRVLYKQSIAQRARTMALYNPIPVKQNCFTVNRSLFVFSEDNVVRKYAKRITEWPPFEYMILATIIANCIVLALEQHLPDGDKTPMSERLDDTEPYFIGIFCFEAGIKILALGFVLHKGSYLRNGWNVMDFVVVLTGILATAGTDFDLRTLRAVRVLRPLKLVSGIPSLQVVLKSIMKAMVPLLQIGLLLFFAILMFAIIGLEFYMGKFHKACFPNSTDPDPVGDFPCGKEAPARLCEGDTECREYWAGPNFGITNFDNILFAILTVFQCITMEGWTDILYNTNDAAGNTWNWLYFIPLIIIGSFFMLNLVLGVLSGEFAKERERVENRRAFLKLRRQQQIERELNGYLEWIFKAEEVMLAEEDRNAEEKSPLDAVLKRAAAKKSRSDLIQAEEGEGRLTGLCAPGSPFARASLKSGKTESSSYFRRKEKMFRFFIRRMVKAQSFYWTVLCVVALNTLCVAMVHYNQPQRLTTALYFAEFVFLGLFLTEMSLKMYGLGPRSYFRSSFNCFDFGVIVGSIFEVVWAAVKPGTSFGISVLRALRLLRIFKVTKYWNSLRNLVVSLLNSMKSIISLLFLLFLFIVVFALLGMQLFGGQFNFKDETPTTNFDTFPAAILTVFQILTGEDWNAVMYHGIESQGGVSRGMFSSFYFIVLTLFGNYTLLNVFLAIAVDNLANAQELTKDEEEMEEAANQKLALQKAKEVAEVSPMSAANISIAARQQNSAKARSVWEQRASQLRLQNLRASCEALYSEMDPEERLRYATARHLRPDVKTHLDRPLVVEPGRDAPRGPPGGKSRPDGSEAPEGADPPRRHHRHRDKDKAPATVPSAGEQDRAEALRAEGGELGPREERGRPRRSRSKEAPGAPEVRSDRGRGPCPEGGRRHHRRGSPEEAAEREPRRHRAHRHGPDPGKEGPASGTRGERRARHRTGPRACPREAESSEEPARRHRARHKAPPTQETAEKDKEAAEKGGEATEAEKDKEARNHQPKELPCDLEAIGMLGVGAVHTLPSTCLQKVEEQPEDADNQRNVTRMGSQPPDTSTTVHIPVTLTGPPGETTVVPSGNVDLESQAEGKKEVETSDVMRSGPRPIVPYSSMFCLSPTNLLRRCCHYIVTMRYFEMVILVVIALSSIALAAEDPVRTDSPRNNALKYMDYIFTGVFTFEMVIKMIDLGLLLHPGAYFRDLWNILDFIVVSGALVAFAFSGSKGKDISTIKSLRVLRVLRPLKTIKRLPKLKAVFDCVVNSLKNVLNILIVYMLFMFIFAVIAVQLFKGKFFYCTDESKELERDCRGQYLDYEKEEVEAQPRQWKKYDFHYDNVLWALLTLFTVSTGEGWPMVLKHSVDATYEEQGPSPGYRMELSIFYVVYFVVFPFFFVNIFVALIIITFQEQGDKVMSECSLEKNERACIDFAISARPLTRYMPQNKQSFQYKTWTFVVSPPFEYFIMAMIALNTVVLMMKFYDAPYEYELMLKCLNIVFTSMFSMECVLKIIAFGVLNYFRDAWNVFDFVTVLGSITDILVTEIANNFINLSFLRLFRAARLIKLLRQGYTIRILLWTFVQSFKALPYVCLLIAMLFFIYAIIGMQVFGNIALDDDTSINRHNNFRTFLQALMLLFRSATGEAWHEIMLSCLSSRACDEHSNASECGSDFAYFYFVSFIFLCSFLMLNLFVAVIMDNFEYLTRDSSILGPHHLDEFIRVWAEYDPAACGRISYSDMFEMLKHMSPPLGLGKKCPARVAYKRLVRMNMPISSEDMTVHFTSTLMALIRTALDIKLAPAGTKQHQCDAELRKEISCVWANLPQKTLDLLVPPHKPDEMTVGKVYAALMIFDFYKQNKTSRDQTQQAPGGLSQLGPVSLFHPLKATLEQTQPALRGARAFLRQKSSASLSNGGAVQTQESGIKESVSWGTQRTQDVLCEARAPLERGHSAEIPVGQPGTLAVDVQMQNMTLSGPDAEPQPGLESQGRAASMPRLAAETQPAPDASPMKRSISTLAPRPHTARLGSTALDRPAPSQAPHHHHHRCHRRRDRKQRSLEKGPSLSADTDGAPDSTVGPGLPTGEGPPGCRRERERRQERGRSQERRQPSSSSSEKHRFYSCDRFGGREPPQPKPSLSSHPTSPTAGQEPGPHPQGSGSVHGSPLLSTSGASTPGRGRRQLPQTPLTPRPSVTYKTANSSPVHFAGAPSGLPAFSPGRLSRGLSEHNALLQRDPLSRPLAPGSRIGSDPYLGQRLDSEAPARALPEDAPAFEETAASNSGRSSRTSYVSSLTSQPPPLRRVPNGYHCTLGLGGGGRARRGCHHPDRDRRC

## wild type α2δ-1 (rat) (from UniProt P54290) LEAVEM replaced by VVVVVV (hexavaline, V6)
3H-gabapentin
  Kd: 68.3 nM

## α2(3C)δ-1 (rat α2δ-1 with the endogenous cleavage motif replaced by a Human Rhinovirus 3C-protease site) (natural protein)
[1]
  decrease in α2δ-1 immunostaining in hippocampal neurites after co-transfection with CaV2.2-HA/β1b, α2(3C)δ-1 relative to WT α2δ-1: 37%

Source: article PMC5092059
